Consider six molecules from paper PMC5444442, “Flagellin peptide flg22 gains access to long-distance trafficking in Arabidopsis via its receptor, FLS2” (Journal of Experimental Botany, 2017).

One data set has as its system Arabidopsis leaf discs. As to the kind of experiment: Subcellular localization, uptake and accumulation of flg22 in leaf discs. The settings on record: for number of foci overlapping with FM4-64 / total number of green (Ff22) fluorescent foci: 18 picture areas (20 μm × 20 μm); for non-specific uptake in presence of active flg22: Col leaf discs floated overnight on 2 μM FAM–scrambled peptide or 2 μM fluorescein mixed with 1 μM TAMRA–flg22 or 2 μM flg22, n≥8; for initial (up to 1.5 h) uptake/binding: leaf discs floated on 5 μM peptide, confocal fluorescence. Format: cell-based, Arabidopsis thaliana. The procedure: Leaf discs were floated (abaxial side down) on 1–5 μM TAMRA–flg22 or 5–10 μM FAM–flg22 solution (in water) at room temperature for the indicated time (lower concentrations were used for overnight treatments). Inhibitors that affect endocytosis, MG132 (Sigma-Aldrich, 50 μM) or 2,3-butanedione monoxime (BDM; Sigma-Aldrich, 50 mM) were added at the same time as the peptides. FM4-64 (Invitrogen, 6–8 μM) or 2′,7′-bis-(2-carboxyethyl)-5-(and-6)-carboxyfluorescein (BCECF)-AM (cleaved by an endogenous plant esterase to BCECF, Invitrogen, 20–40 μM) mixed with peptide solution was vacuum infiltrated for 2 min into leaf discs ([Kang et al., 2014]) prior to incubation (floating on peptide/dye solution) for the indicated time. In some experiments FAM–Y-flg22 was used with results similar to FAM–flg22.
For experiments with mixed peptides, leaf discs were floated for the indicated time on 2 μM FAM–flg22, FAM–scrambled peptide or fluorescein mixed with 1 μM TAMRA–flg22. In all experiments, leaf discs were washed after treatment by gently shaking for several minutes in water and the abaxial side was imaged by confocal or epifluorescence microscopy (see ‘Microscopy’). Fluorescence intensity profiles were generated with ImageJ, as in [Spallek et al., (2013)] and [Bozkurt et al. (2015)] (see ‘Data analysis’).
Confocal images were obtained using a Zeiss LSM710 laser-scanning confocal microscope (Zeiss, Germany) as described in [Kang et al. (2014)]. Fluorescence was visualized as follows: GFP/FAM/fluorescein/BCECF excitation (ex) 488 nm/emission (em) 495–545 nm; TAMRA ex 561 nm/em 566–620 nm; FM4-64: ex 561 nm/em 686–758 nm. Green and red fluorescence was acquired for the same field using a sequential acquisition mode.
Fluorescence intensity profiles were generated with ImageJ (http://rsb.info.nih.gov/ij, last accessed 6 April 2017) using RGB Profiler and Color Profiler. Fluorescent puncta were manually counted in 20 μm × 20 μm confocal image areas as in [Irani et al. (2012)] and [Chaparro-Garcia et al., (2015)] and shown as a fraction ([Irani et al., 2012]; [Choi et al., 2013]). […]

The test system of data set [1] is detached Arabidopsis leaf. As to the kind of experiment: Movement across a leaf blade. The settings on record: 1 h, epifluorescence. The procedure:
A 5 μl drop of water solution of 10 μM FAM–flg22 or FAM–scrambled peptide was placed on the abaxial side of a detached Arabidopsis leaf in a humid chamber. […] Excess peptide was removed after 0.5 h, leaf surface was washed with water and epifluorescence images of the adaxial side were taken during the next 30 min (0.5–1 h after treatment).
The amount of peptide in plant cells was measured as total fluorescence per view field (integrated density) as in [Martins et al. (2015)], and was quantified with ImageJ in each channel in confocal and epifluorescence images. To allow comparison between experiments, fluorescence was calculated as a percentage of the signal in Col treated with TAMRA–flg22 or FAM–flg22. ^125I radioactivity in local and distal tissues was quantified from autoradiographs using a Cyclone Phosphorimager (Perkin Elmer) or in a scintillation counter (Packard Quantum Cobra D5002) and shown as percentage of total radioactivity in a plant. [^14C]sucrose radioactivity was quantified in a scintillation counter. Data from multiple experiments were analysed together using Prism software (GraphPad) (one-way ANOVA followed by Tukey’s test, or the t-test).

For data set [2], the system named is Arabidopsis plants. Kind of data set: Long-distance transport to distal tissues after infiltration of fluorescent peptide. Format: in vivo, Arabidopsis thaliana. The following applies: for detection within cells in distal part of infiltrated leaf: 10 μM infiltrated, 2 h, confocal microscopy. The procedure:
A 5–10 μM water solution of FAM–flg22 was pressure infiltrated with a 1 ml blunt syringe into a part or all of one leaf of 4-week-old soil-grown plants and distal tissues were examined by epifluorescence and confocal microscopy after 2 and 16 h, respectively. FAM–Y-flg22 was used in some experiments with similar results.
(§1) [^14C]sucrose radioactivity was quantified in a scintillation counter.

Data set [3] deals with Arabidopsis plants. As to the kind of experiment: Long-distance transport after surface application of fluorescent peptide. Format: in vivo, Arabidopsis thaliana. The settings on record: 1 d. The procedure: We applied 10–20 μl of 5 μM TAMRA–flg22 (without or with inhibitors: 50 μM MG132 or 50 mM BDM) to a filter paper disc placed on the adaxial side of one leaf of in vitro-grown Arabidopsis plants and distal tissues were imaged by confocal microscopy after 1 d. For experiments with mixed peptides, 5 μM TAMRA–flg22 + 10 μM FAM–scrambled peptides were used.
as §1

In data set [4] the test system is Arabidopsis plants. Kind of data set: Long-distance transport after surface application of radiolabeled peptide. Format: in vivo, Arabidopsis thaliana. The following applies: control; 1 μl droplet of Na125I (1 × 10^6 cpm) on abaxial side of one leaf; 3 h; five plants, three experiments, P=0.7. The procedure: We applied 0.5–1 µM (specific activity 17 µCi µg^–1) ^125I-Y-flg22 or ^125I-Y-scrambled peptide in 10 mM MES pH 5.7 with 0.01% Tween-20 as a 1 µl droplet to the abaxial side of one mature leaf of 4-week-old soil-grown Arabidopsis plants and incubated for 3 h. For the control, 1 µl of 1.8 µM Na^125I (2.2 µCi µg^–1) in 5 mM NaOH–0.5 mM NaHSO2 (to prevent volatilization) with 0.005% Tween-20 was applied in the same way. Whole plants were sealed in plastic (Pinnacle Cover-All, Total Care), additionally contained in a plastic bag, and exposed for 5 d to phosphor screens for autoradiography.
as §1

Where [5] appears, read: Col leaf discs, 5–10 μM peptide with FM4-64 (6–8 μM), 1–2 h, confocal.
[6] abbreviates: fls2 leaf discs, 5–10 μM peptide with FM4-64, 1–2 h, confocal.
The mark [7] stands for this setting: Ws (lacks FLS2) leaf discs floated on 2 μM peptide 1–2 h, 16 picture areas (20 μm × 20 μm), confocal.
The mark [8] stands for this setting: Ws/FLS2–GFP leaf discs floated on 2 μM peptide 1–2 h, 16 picture areas (20 μm × 20 μm), confocal.

Peptide text beside a SMILES is read from it. * marks the point of attachment. 5TAMRA = CN(C)c1ccc2c(c1)Oc1cc(N(C)C)ccc1C21OC(=O)c2cc(C(=O)*)ccc21; 5FAM = O=C1OC2(c3ccc(O)cc3Oc3cc(O)ccc32)c2ccc(C(=O)*)cc21; Cbz = O=C(OCc1ccccc1)*

On to `CC[C@H](C)[C@H](NC(=O)[C@H](CCC(N)=O)NC(=O)[C@H](CC(C)C)NC(=O)CNC(=O)[C@H](C)NC(=O)[C@H](C)NC(=O)[C@H](CC(=O)O)NC(=O)[C@H](CC(=O)O)NC(=O)[C@H](CCCCN)NC(=O)[C@H](C)NC(=O)[C@H](CO)NC(=O)[C@H](CC(N)=O)NC(=O)[C@@H](NC(=O)[C@H](CCCNC(=N)N)NC(=O)[C@H](CO)NC(=O)CNC(=O)[C@@H](NC(=O)[C@H](CO)NC(=O)[C@H](CC(C)C)NC(=O)[C@H](CCCNC(=N)N)NC(=O)[C@H](CCC(N)=O)NC(=O)c1ccc2c(c1)C(=O)OC21c2ccc(O)cc2Oc2cc(O)ccc21)[C@@H](C)O)[C@@H](C)CC)C(=O)N[C@@H](C)C(=O)O` [FAM–flg22] (5FAM-QRLSTGSRINSAKDDAAGLQIA-OH), for which the “number of foci overlapping with FM4-64” value came to 212 with Arabidopsis leaf discs (setting [5]) and 2 in the data set on Arabidopsis leaf discs (setting [6]). For the same molecule, the “total number of green (Ff22) fluorescent foci” value in the data set on Arabidopsis leaf discs (setting [5]) was 217; with Arabidopsis leaf discs (setting [6]), 10. Also, in the data set on Arabidopsis leaf discs (Col leaves, 5–10 μM peptide, 1–2 h incubation, confocal), the “co-localization with endocytic dye FM4-64” value is “co-localized with a subset of vesicles and MVBs”. The signal in cells entry in the data set on Arabidopsis leaf discs (fls2 mutant, 5–10 μM peptide, 1–2 h incubation, confocal) was “not visible”. Besides, the “detection on adaxial side of leaf after application to abaxial side” value in data set [1] (Col detached leaf, 5 μl drop of 10 μM peptide, three experiments, n≥5) is “detected”. Further, the “mobility across a leaf blade” value in data set [1] (fls2 and bak1 mutants, 10 μM peptide drop) is given as “reduced”. The “detection within cells in distal part of infiltrated leaf” value in the data set on Arabidopsis plants [2] (Col) is recorded as “present within vascular cells”; in the data set on Arabidopsis plants [2] (fls2), “not detected within cells”. Further, the “detection in distal orthostichous leaves” value in the data set on Arabidopsis plants [2] (Col, 5–10 μM infiltrated into part of one leaf of soil-grown plants, 16 h, epifluorescence) is “detected”. For the same molecule, the “detection in distal leaves” value with Arabidopsis plants [2] (fls2, 5–10 μM infiltrated into one leaf, 16 h, epifluorescence) is recorded as “not observed”.
In the case of `O=C1OC2(c3ccc(O)cc3Oc3cc(O)ccc32)c2ccccc21` [fluorescein, reference compound], the “non-specific uptake in presence of active flg22” value with Arabidopsis leaf discs (confocal) was “did not induce uptake”.
As for `CC[C@H](C)[C@H](NC(=O)CNC(=O)c1ccc2c(c1)C(=O)OC21c2ccc(O)cc2Oc2cc(O)ccc21)C(=O)N[C@H](C(=O)N[C@@H](C)C(=O)N[C@@H](CO)C(=O)N[C@@H](CCCCN)C(=O)N[C@@H](C)C(=O)N[C@@H](CC(C)C)C(=O)NCC(=O)N[C@@H](C)C(=O)N[C@@H](CC(=O)O)C(=O)N[C@@H](CC(C)C)C(=O)N[C@@H](CCCNC(=N)N)C(=O)N[C@@H](CCCNC(=N)N)C(=O)N[C@H](C(=O)N[C@@H](CC(N)=O)C(=O)N[C@@H](CCC(N)=O)C(=O)N[C@@H](CO)C(=O)N[C@@H](C)C(=O)N[C@@H](CO)C(=O)N[C@@H](CCC(N)=O)C(=O)N[C@@H](CC(=O)O)C(=O)O)[C@@H](C)CC)[C@@H](C)O` [FAM–scrambled peptide] (5FAM-GITASKALGADLRRINQSASQD-OH), the “non-specific uptake in presence of active flg22” value with Arabidopsis leaf discs (confocal) was “not observed”. Also, the “detection within cells in distal part of infiltrated leaf” value with Arabidopsis plants [2] (Col) is “not detected within cells”.
For the molecule `CC(C)C[C@@H](C=O)NC(=O)[C@H](CC(C)C)NC(=O)[C@H](CC(C)C)NC(=O)OCc1ccccc1` [MG132, reference compound] (Cbz-Leu-Leu-Leu-aldehyde), the “effect of inhibitor on initial binding/uptake of TAMRA–flg22” value in the data set on Arabidopsis leaf discs (Col leaf discs, 5 μM TAMRA–flg22 with 50 μM MG132 or 50 mM BDM added simultaneously, 1–2 h) is given as “did not prevent initial peptide binding/uptake”. For the same molecule, the “effect of inhibitor on overnight accumulation of TAMRA–flg22 in vacuoles” value in the data set on Arabidopsis leaf discs (Col leaf discs, 1–2 μM TAMRA–flg22 with 50 μM MG132 or 50 mM BDM, overnight) was “did not accumulate in vacuoles”. Moreover, the “effect of inhibitor on long-distance movement of TAMRA–flg22” value with Arabidopsis plants [3] (Col, 5 μM TAMRA–flg22 with 50 μM MG132 or 50 mM BDM on filter paper disc) is “prevented”.
Turning to `CC[C@H](C)[C@H](NC(=O)[C@H](CCC(N)=O)NC(=O)[C@H](CC(C)C)NC(=O)CNC(=O)[C@H](C)NC(=O)[C@H](C)NC(=O)[C@H](CC(=O)O)NC(=O)[C@H](CC(=O)O)NC(=O)[C@H](CCCCN)NC(=O)[C@H](C)NC(=O)[C@H](CO)NC(=O)[C@H](CC(N)=O)NC(=O)[C@@H](NC(=O)[C@H](CCCNC(=N)N)NC(=O)[C@H](CO)NC(=O)CNC(=O)[C@@H](NC(=O)[C@H](CO)NC(=O)[C@H](CC(C)C)NC(=O)[C@H](CCCNC(=N)N)NC(=O)[C@H](CCC(N)=O)NC(=O)c1ccc2c(c1)C(=O)OC21c2ccc(N(C)C)cc2Oc2cc(N(C)C)ccc21)[C@@H](C)O)[C@@H](C)CC)C(=O)N[C@@H](C)C(=O)O` [TAMRA–flg22] (5TAMRA-QRLSTGSRINSAKDDAAGLQIA-OH), the “overnight accumulation in plant cells” value with Arabidopsis leaf discs (Col leaf discs, 1 μM peptide with vacuolar dye BCECF (20 μM), overnight, confocal) is “accumulated in central vacuoles”; with Arabidopsis leaf discs (fls2 and bak1 versus Col, leaf discs floated on 1–2 μM peptide overnight, confocal, P<0.0002, n≥7) it was “inhibited”. Also, the “number of overlapping red and green foci” value in the data set with Arabidopsis leaf discs (setting [7]) is recorded as 0. Besides, the “total number of red (Tf22) fluorescent foci” value in the data set on Arabidopsis leaf discs (setting [7]) is recorded as 5; with Arabidopsis leaf discs (setting [8]), 161. Besides, the “number of foci overlapping with FLS2–GFP” value in the data set on Arabidopsis leaf discs (setting [8]) is listed as 143. The internalization into vesicles result in the data set on Arabidopsis leaf discs (Ws/FLS2–GFP leaf discs, 2 μM peptide, 1–2 h, confocal) is “found together in vesicles”. Further, the “initial (up to 1.5 h) uptake/binding” value in the data set with Arabidopsis leaf discs (bak1 versus Col) was “not highly affected”; with Arabidopsis leaf discs (fls2 versus Col, P<0.05, n≥6) it was “reduced”. Moreover, the “fluorescence signal inside cells” value with Arabidopsis leaf discs (non-transgenic wild-type Ws control or Col fls2, 1–2 h, confocal) is listed as “No fluorescence signal was observed inside the cells”. In the data set on Arabidopsis plants [3] (Col, 5 μM on filter paper disc on adaxial side of one leaf of in vitro-grown plants, confocal), the “detection in local (treated) tissue” value is “detected preferentially in the vascular region”. Further, the “detection in distal leaves and flowers” value in the data set with Arabidopsis plants [3] (Col, 5 μM on filter paper disc on one leaf of in vitro-grown plants, confocal) was “detected”. Further, in the data set on Arabidopsis plants [3] (WT Col, 5 μM TAMRA–flg22 + 10 μM FAM–scrambled peptide on filter paper disc, confocal, n=6), the “movement to distal organs from mixture of peptides” value was “moved, to a significant extent”.
In the case of `[125I-].[Na+]` [Na^125I], the “movement to distal leaves, Col versus fls2” value with Arabidopsis plants [4] was “the same in Col and fls2”.
